In patent US20230357323A1 (University of Washington, published 2023):
Where a chain is given by its changes, count along the chain named. One block for each binder: values may come before it.

How the values were obtained:
[1] = molecular target: T1, human IL-23R (hIL-23R), custom construct with C-terminal avi and his tags, biotinylated (human, UniProt Q5VWK5 24-355, limits assumed, enzymatically biotinylated via the avi-tag); assay: yeast display FACS, SIF incubation then labeled hIL-23R, 5-7 rounds
T1 construct: immobilized on streptavidin tips in BLI, labeled target in FACS; also called human IL-23 receptor
T1 sequence (looked up): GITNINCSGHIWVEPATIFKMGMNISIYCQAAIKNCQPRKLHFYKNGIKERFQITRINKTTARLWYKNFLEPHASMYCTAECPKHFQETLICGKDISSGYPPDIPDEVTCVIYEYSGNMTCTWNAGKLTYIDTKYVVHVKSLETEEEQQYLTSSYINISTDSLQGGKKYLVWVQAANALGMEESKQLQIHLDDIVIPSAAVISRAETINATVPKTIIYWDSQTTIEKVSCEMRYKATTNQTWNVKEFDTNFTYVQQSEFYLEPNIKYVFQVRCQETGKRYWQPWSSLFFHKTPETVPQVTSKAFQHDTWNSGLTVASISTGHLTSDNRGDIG
Experimental: Yeast libraries were first incubated in SIF at 30C, then washed thoroughly and incubated with labeled hIL-23R, and cells retaining the highest binding signal (top 1-5%) were collected by FACS. Two rounds of selection were performed for each library, and the SIF incubation time and/or concentration of proteases were increased from first to second round. […] Indeed in several libraries we saw a large population of Myc-negative, binding-positive cells. In parallel, we performed two rounds of selection for binding to hIL-23R only, without pre-incubation in SIF. […] Best mutations were included in combinatorial libraries, sorted as above for 5-7 rounds after which individual clones were sequenced. Variants present in the final sorts were expressed in E. coli and characterized (SEQ ID NOS: 70-74 and 153-164).
(§1) Yeast strain EBY100 was transformed with each library and vector by electroporation and grow in minimal media selective for the yeast strain (-ura) and the transforming plasmid (-trp).²⁷ Expression was induced with 2% galactose. Surface expression was detected with anti-Myc-FITC (Immunology Consultants Laboratory) conjugate, and binding to biotinylated IL-23R was detected with streptavidin-PE (Invitrogen).
SIF SSM and combinatorial libraries were prepared as follows: after 16-24 hours induction, yeast were spun down, washed with PBSF, resuspended in SIF (recipe described below) at an OD of 2.0, and incubated at 30° C. shaking for 30-90 minutes as noted. After SIF digest, cells were spun down and washed 4 times with 800 uL PBSF, manually aspirating the supernatant each time to ensure complete washing to remove proteases. SIF-treated cells were then treated with target protein as described above.

[2] = molecular target: T1, human IL-23R (hIL-23R), custom …; assay: biolayer interferometry titration, biotinylated hIL-23R immobilised on streptavidin tips, 1:1 fit
Experimental: Variants were first screened for relative binding to hIL-23R with biolayer interferometry (BLI). hIL-23R was immobilized on the BLI sensor tips and binding to each variant in solution at a constant concentration (50 nM) was measured to qualitatively determine relative performance of the variants. For the best-performing variants, binding constants (KD, including kₒₙ, and koff) were quantitatively determined with BLI titration experiments in triplicate.
Qualitative and quantitative assessment of binding affinity was performed using biolayer interferometry (ForteBio Octet™ […] and associated software for analysis). Enzymatically biotinylated target protein (30 nM) was immobilized on streptavidin-coated sensor tips, then sequentially dipped in wells with: buffer only (baseline), inhibitor in solution (association), and buffer only (dissociation). Kinetic constants were determined from the mathematical fit of a 1:1 binding model.

[3] = molecular target: T1, human IL-23R (hIL-23R), custom …; assay: yeast display FACS, combinatorial library
Experimental: To further enhance affinity, we incorporated mutations previously shown to enhance binding in a combinatorial library that was then sorted for binding hIL-23R to convergence in 6 rounds. The final selection pools were plated on solid media, and individual clones sequenced. 26 unique combinatorial variants appearing in the final selection pool (SEQ ID NOS: 11-24 and 111-122) were selected for expression in E. coli and further biophysical characterization.
as §1
Yeast were then washed with PBSF and incubated for 2-5 minutes with stain solution (1:100 each anti-Myc-FITC and streptavidin-PE), washed, and resuspended for analysis and selection by FACS. FACS consecutive gates were set as follows: (1) cell granularity and size, selecting for yeast cells (BSC vs. FSC); (2) cell morphology, selecting singlets (FSC-height vs. FSC-width); (3) expression, selecting expressors by proxy of the Myc-tag (FITC fluorescence histogram); and (4) binding signal, selecting the top 1-5% relative to total population (PE vs. FITC).

binding result [1]: binds
B1: B0402SB (designed binder)
chain: QLWQIFYLLNTCIKRTGDPTCKKLIKALRECLKKGDAKACDELAKKAVKYIMS

binding result [1]: binds
B2: B0402SC (designed binder)
chain: B1 chain with G17C, I25K, K45D

binding result [1]: binds
B3: B0402SA (designed binder)
chain: B1 chain with Q1E, A37M

binding result [1]: binds
B4: rA11dslf02E (designed binder)
chain: PEPEQFLTELCKKYYEGKLSQPEAVEEIRKYARKWGLEAWKLIWYFMQCVKRDI

binding result [1]: binds
B5: rA11dslf02A (designed binder)
chain: MEPEKFLKELCKAYYEGKLSQQEAVEEIRSYAMKWGLEAWMLIWYFMQCVKRDI

binding result [1]: binds
B6: rA11dslf02C (designed binder)
chain: B5 chain with M1P, K8S, Q22I, M33R, K34S, M41K

binding result [1]: binds
B7: rA11dslf02D (designed binder)
chain: B4 chain with Q5K, T8A, K13A, K30S, I43V, Q48L

binding result [1]: binds
B8: rA11dslf02B (designed binder)
chain: MEPEEFLLELCKAYYEGKLSQIEAVEEIRHYARSFGLEAWQLIWYFMQCVKRDI

Kd [2]: 250 pM
koff [2]: 0.00024 s⁻¹
kon [2]: 980000 M⁻¹ s⁻¹
B9: A03 (designed binder)
chain: MEEEKYVRELVKKYYEGKLSQPEAVEEIRKYARKKGLEAWKLIWAFMQLVKRDI

binding result [3]: binds
B10: A06 (designed binder)
chain: B9 chain with E3P, G17K, K41M, I43V, A45H

binding result [3]: binds
B11: A09 (designed binder)
chain: MEEEKYLRELVKKYYEQKLSQPEAVEIIRKYARKKGEEAWYLIWMFMELVKRDI

binding result [3]: binds
B12: A01 (designed binder)
chain: B9 chain with E3P, V7L, L10K, I43V, A45Y, Q48E

binding result [3]: binds
B13: A02 (designed binder)
chain: B9 chain with V7L, G17Q, Q21H, P22Q, E27I, I43V

binding result [3]: binds
B14: A13 (designed binder)
chain: B9 chain with E3P, L10K, A45H

binding result [3]: binds
B15: A12 (designed binder)
chain: B9 chain with E3P, G17Q, P22Q, E27I, K41M, I43V

binding result [3]: binds
B16: A05 (designed binder)
chain: B9 chain with L10Q, G17K, E27I

binding result [3]: binds
B17: A07 (designed binder)
chain: B9 chain with V7L, G17K, E27I, I43V

binding result [3]: binds
B18: A14 (designed binder)
chain: B11 chain with I28V, E37L, Y41K, M45A, D53Y

binding result [3]: binds
B19: A10 (designed binder)
chain: B9 chain with V7L, L10Q, Q21V, P22V, I28V

binding result [3]: binds
B20: A11 (designed binder)
chain: B9 chain with Q21H, P22Q, E26V, I43V, A45M, D53N

binding result [3]: binds
B21: A04 (designed binder)
chain: B9 chain with Q21H, I43V

Kd [2]: 370 pM
koff [2]: 0.00028 s⁻¹
kon [2]: 770000 M⁻¹ s⁻¹
B22: A08 (designed binder)
chain: B9 chain with G17K, I43V, Q48E, D53N

binding result [3]: binds
B23: B10 (designed binder)
chain: NLWVIFYVLNTIIKRTGDPTAKKLVKALQEAMKKWDEKATKELAKKATKYIRS

binding result [3]: binds
B24: B11 (designed binder)
chain: B23 chain with V4I, V8Q, V25I, M32N, T40L

binding result [3]: binds
B25: B04 (designed binder)
chain: NLWQIFYLLNTIIKRTGDPTAKKLKKALREALKKGDEKAVKELAKKAMKYIRS

Kd [2]: 140 pM
koff [2]: 5.6e-05 s⁻¹
kon [2]: 400000 M⁻¹ s⁻¹
B26: B03 (designed binder)
chain: B25 chain with L8I, I13H, K25P, L32M, V40M, M48L

binding result [3]: binds
B27: B07 (designed binder)
chain: B25 chain with L8M, I13F, K25L, L32T, V40M, M48T

binding result [3]: binds
B28: B05 (designed binder)
chain: B25 chain with Q4M, I13F, R29N, L32M, V40M, M48T

Kd [2]: 320 pM
koff [2]: 0.00011 s⁻¹
kon [2]: 350000 M⁻¹ s⁻¹
B29: B06 (designed binder)
chain: B23 chain with V8L, I13H, V25I, Q29D, W35G, T48L

binding result [3]: binds
B30: B12 (designed binder)
chain: B25 chain with L8V, I13Y, K25P, L32M, G35N, V40I

binding result [3]: binds
B31: B09 (designed binder)
chain: B25 chain with L8V, I13Y, K25P, G35N, V40T

binding result [3]: binds
B32: B01 (designed binder)
chain: B25 chain with Q4M, K25L, R29Q, G35Y, V40I

binding result [3]: binds
B33: B02 (designed binder)
chain: B25 chain with L8I, L32T, V40M

Kd [2]: 130 pM
koff [2]: 0.00034 s⁻¹
kon [2]: 2.6e+06 M⁻¹ s⁻¹
B34: A03dslf04 (designed binder)
chain: MEEEKCVRELCKKYYEGKLSQPEAVEEIRKCARKKGLEAWKLIWAFMQCVKRDIHHHHHH
notes: E. coli, purified

Kd [2]: 460 pM
koff [2]: 0.00044 s⁻¹
kon [2]: 960000 M⁻¹ s⁻¹
B35: A05dslf01 (designed binder)
chain: B34 chain with L10Q, G17K, E27I
notes: E. coli, purified

Kd [2]: 140 pM
koff [2]: 0.0002 s⁻¹
kon [2]: 1.5e+06 M⁻¹ s⁻¹
B36: A08dslf03 (designed binder)
chain: B34 chain with C6Y, G17K, C31Y, I43V, Q48E, D53N
notes: E. coli, purified
